According to article PMC2778851:
pKd: −log10 of the molar value.

Legend:
[1] = target: HTLV-1 125 PR (stabilized full-length HTLV-1 protease) (Human T-lymphotropic virus type 1 (HTLV-1)); test: SEC
[2] = target: His-HTLV-1 125 PR (N-terminally His-tagged full-length stabilized HTLV-1 protease) (Human T-lymphotropic virus type 1 (HTLV-1)); test: pull-down
[3] = target: HTLV-1 125 PR (stabilized full-length HTLV-1 protease) (Human T-lymphotropic virus type 1 (HTLV-1)); test: activity-based dimerization assay
[4] = target: HTLV-1 120 PR (HTLV-1 protease shortened by 5 C-terminal residues) (Human T-lymphotropic virus type 1 (HTLV-1)); test: activity-based dimerization assay

HTLV-1 125 PR (stabilized full-length HTLV-1 protease) (enzyme)
stoichiometry N [1]: 2 | densitometric ratio of the untagged to the His-tagged band (125/H125) [2]: 84.9 | pKd [3]: 6.31

HTLV-1 115 PR (HTLV-1 protease shortened by 10 C-terminal residues) (domain or fragment)
densitometric ratio of the untagged to the His-tagged band (115/H125) [2]: 37.3

HTLV-1 120 PR (HTLV-1 protease shortened by 5 C-terminal residues) (domain or fragment)
densitometric ratio of the untagged to the His-tagged band (120/H125) [2]: 37.2 | pKd [4]: < 5.52
